From PMC2200010 come the findings set out here.

The target in test [1] is Escherichia coli heat labile toxin B subunit, pentameric, recombinant (Escherichia coli) (UniProt P32890). Briefly: ELISA. (An ELISA detects its analyte on a solid surface through an enzyme-linked reagent.)
The target in test [2] is cholera toxin B subunit, pentameric, recombinant (Vibrio cholerae) (UniProt P01556). Briefly: ELISA.
Chain of UniProt P01556 (P01556 22-124): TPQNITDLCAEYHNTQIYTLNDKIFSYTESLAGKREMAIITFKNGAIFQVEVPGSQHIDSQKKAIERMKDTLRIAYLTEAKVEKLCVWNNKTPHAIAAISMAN

Chain of UniProt P32890 (P32890 22-124): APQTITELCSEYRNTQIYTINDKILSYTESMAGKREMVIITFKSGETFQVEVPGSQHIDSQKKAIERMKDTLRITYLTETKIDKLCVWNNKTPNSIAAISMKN

Turning to “Escherichia coli heat labile toxin A subunit, recombinant wild type (from UniProt P06717 19-258) (natural protein)”, in test [1], the stoichiometry N (A subunit per pentameric B subunit) worked out at 1.
For the substance “cholera toxin A subunit, recombinant wild type (natural protein)”, the stoichiometry N (A subunit per pentameric B subunit) in test [2] is 1.
